Data set [1] deals with T1, N-terminally FLAG-tagged soluble human CD39 secreted from COS-1 cells transfected with pIL2LFlagSolCD39 (human, UniProt P49961 38-476).
T1 construct: The cleavage site of the leader was not determined for the FLAG-tagged form; In conditioned medium, about 66 kD, glycosylated; also called pIL2LFlagSolCD39 product; tagged soluble CD39
T1 sequence: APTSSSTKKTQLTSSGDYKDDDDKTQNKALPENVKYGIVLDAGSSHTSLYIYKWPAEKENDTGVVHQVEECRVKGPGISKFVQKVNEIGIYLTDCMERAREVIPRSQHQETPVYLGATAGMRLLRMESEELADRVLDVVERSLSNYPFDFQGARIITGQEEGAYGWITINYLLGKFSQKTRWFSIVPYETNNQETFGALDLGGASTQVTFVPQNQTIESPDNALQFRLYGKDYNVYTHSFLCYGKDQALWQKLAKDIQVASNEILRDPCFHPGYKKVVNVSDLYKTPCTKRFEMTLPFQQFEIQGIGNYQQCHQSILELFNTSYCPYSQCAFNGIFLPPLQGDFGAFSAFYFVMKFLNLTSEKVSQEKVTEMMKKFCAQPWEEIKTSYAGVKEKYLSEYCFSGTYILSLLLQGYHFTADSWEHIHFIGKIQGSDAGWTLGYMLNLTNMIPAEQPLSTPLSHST
The data set is described as follows: immunoaffinity depletion of COS-1 conditioned medium with conjugated Affigel beads, ATPase activity left in the supernatant. How it is done:
CM was collected from COS-1 cells transfected with pIL2LFlagSolCD39, which had been cultured for 5 days in DMEM/F12 supplemented with 5% FCS. A 100 μl aliquot of drained Affigel beads (AG) conjugated with either chicken ovalbumin, antiFLAG mAb, or anti-CD39 mAb was added per ml of CM. […] Each cycle involved continuous gentle agitation of the slurry for 14 h at 4° C. followed by centrifugation to recover supernatants for a subsequent binding cycle or for ATPDase activity measurements.

Data set [2] can be described thus: Enzymatic (ATPase and ADPase) activity of site-directed CD39 mutants. It is filed as biochemical. The following applies: alanine replacement in conserved apyrase regions. The procedure: Mutants were assayed for enzymatic (ATPase and ADPase) and platelet inhibitory (dose-dependent inhibition of platelet aggregation) activities. For one series of mutants, residues within the conserved apyrase regions were replaced with alanine.

For another data set, the system named is platelets. The data set is described as follows: Platelet aggregation in platelet-rich plasma from volunteers. It is filed as cell-based, human. The following applies: alanine replacement mutant.
The nature of data set [3]: Phosphate release assay for ATPase activity. Format: biochemical. To be noted: 100 μL of 10-fold concentrated CM from COS-1 transfectants; 10X buffer with 30 mM cold ATP.
The nature of data set [4]: Phosphate release assay for ATPase activity. It is filed as biochemical. To be noted: for CPM × 10^3 (net counts), ATPase activity in CM: 5 days (Table 3). The procedure:
This example describes an ATPase assay that may be used to track enzyme activity. Samples (approximately 100 μl of either concentrated CM or purified polypeptide) are combined with 20 μl of 10X assay buffer (200 mM HEPES, 1.2 M NaCl, 50 mM KCl, 15 mM CaCl2, 15 mM MgCl2 and 3 mM ATP) and sterile water is added to a final volume of 200 μl. Radiolabeled ATP (0.8 μCi γ [^32P] ATP; Amersham, Arlington Heights, Ill.) is added and the mixture incubated for 20 minutes at 37° C. Stop mix (0.5 ml of 20% activated charcoal/1 M HCl) is added and the reaction is placed on ice for 10 minutes. After centrifugation (14K rpm for 10 minutes), the supernatant is assayed for free ^32P using a scintillation counter. Data are expressed as raw counts or net counts, or as picomoles of ATP degraded per minute.
The transfections were repeated and the CM (10, 20 and 30 μL, unconcentrated) was assayed essentially as described in Example 7. […] ATPase levels in CM from COS-1 cells transfected with pIL2LFlagSolCD39 increased with time in culture over at least 4 days post-transfection.
To determine whether activity was affected by removal of the N-terminal FLAG® tag, COS-1 cells were transfected with pIL2LFlagSolCD39 and pIL2LSolCD39 and supernatants (sups) were harvested after 5 days. Samples of 10, 20 and 30 μL of 1x sups were assayed for ATPase activity as described in Example 7.
The expression of Trim1 and Trim2 constructs was analyzed in COS-1 cells cultured in 10 cm plates. After 5 days of incubation, 1x supernatants were examined via ELISA (using anti-CD39) and the phosphate-release assay described in Example 7. […] Expression levels, however, appeared to be reduced 3-4 fold.

Procedure for platelets: After obtaining informed consent from volunteers, blood was collected via plastic tubing using acid citrate-dextrose (38 mM citric acid; 75 mM sodium citrate; 135 mM glucose) as anticoagulant. Where indicated, volunteers had ingested 650 mg acetylsalicylic acid (ASA) 18 h prior to blood donation. Platelet-rich plasma (PRP) was prepared with an initial whole blood centrifugation (200 g, 15 min, 25° C.), and a second centrifugation of the PRP (90 g, 10 min) to eliminate residual erythrocytes and leukocytes. The stock suspension of PRP was maintained at room temperature under 5% CO2-air.
Total volumes were adjusted to 300 μl with TSG buffer (Marcus et al., J. Clin. Invest. 88:1690, 1991; Marcus et al., J. Clin. Invest. 99:1351, 1997). After the 3 min preincubation, platelet agonists (ADP or collagen) were added at the concentrations indicated, and the aggregation response recorded for 4-5 min.

B1: chicken ovalbumin conjugated to Affigel beads (other, UniProt P01012 2-386, looked up)
chain: GSIGAASMEFCFDVFKELKVHHANENIFYCPIAIMSALAMVYLGAKDSTRTQINKVVRFDKLPGFGDSIEAQCGTSVNVHSSLRDILNQITKPNDVYSFSLASRLYAEERYPILPEYLQCVKELYRGGLEPINFQTAADQARELINSWVESQTNGIIRNVLQPSSVDSQTAMVLVNAIVFKGLWEKAFKDEDTQAMPFRVTEQESKPVQMMYQIGLFRVASMASEKMKILELPFASGTMSMLVLLPDEVSGLEQLESIINFEKLTEWTSSNVMEERKIKVYLPRMKMEEKYNLTSVLMAMGITDVFSSSANLSGISSAESLKISQAVHAAHAEINEAGREVVGSAEAGVDAASVSEEFRADHPFLFCIKHIATNAVLFFGRCVSP
notes: Control beads; also called ovalbumin-conjugated AG; ovalbumin-conjugated beads
With B1, in data set [1], the binding result was “no binding”.

B2: E174A mutant: CD39 mutant, Glutamate 174 replaced with alanine (protein, UniProt P49961 1-510, looked up, variant E174A)
Ectonucleoside triphosphate …: MEDTKESNVKTFCSKNILAILGFSSIIAVIALLAVGLTQNKALPENVKYGIVLDAGSSHTSLYIYKWPAEKENDTGVVHQVEECRVKGPGISKFVQKVNEIGIYLTDCMERAREVIPRSQHQETPVYLGATAGMRLLRMESEELADRVLDVVERSLSNYPFDFQGARIITGQEAGAYGWITINYLLGKFSQKTRWFSIVPYETNNQETFGALDLGGASTQVTFVPQNQTIESPDNALQFRLYGKDYNVYTHSFLCYGKDQALWQKLAKDIQVASNEILRDPCFHPGYKKVVNVSDLYKTPCTKRFEMTLPFQQFEIQGIGNYQQCHQSILELFNTSYCPYSQCAFNGIFLPPLQGDFGAFSAFYFVMKFLNLTSEKVSQEKVTEMMKKFCAQPWEEIKTSYAGVKEKYLSEYCFSGTYILSLLLQGYHFTADSWEHIHFIGKIQGSDAGWTLGYMLNLTNMIPAEQPLSTPLSHSTYVFLMVLFSLVLFTVAIIGLLIFHKPSYFWKDMV
On to B2, for which the “enzymatic activity of mutant” value in data set [2] is given as “completely devoid of enzymatic activity”. Further, the “effect on platelet responsiveness” value with platelets is listed as “no effect on platelet responsiveness”.

B3: pIL2LFlagSolCD39: N-terminally FLAG-tagged solCD39 with human proinsulin/IL2 leader and 12 mature IL2 residues (SEQ ID NO:25); COS-1 CM (protein)
chain: MALWIDRMQLLSCIALSLALVTNSAPTSSSTKKTQLTSSGDYKDDDDKTQNKALPENVKYGIVLDAGSSHTSLYIYKWPAEKENDTGVVHQVEECRVKGPGISKFVQKVNEIGIYLTDCMERAREVIPRSQHQETPVYLGATAGMRLLRMESEELADRVLDVVERSLSNYPFDFQGARIITGQEEGAYGWITINYLLGKFSQKTRWFSIVPYETNNQETFGALDLGGASTQVTFVPQNQTIESPDNALQFRLYGKDYNVYTHSFLCYGKDQALWQKLAKDIQVASNEILRDPCFHPGYKKVVNVSDLYKTPCTKRFEMTLPFQQFEIQGIGNYQQCHQSILELFNTSYCPYSQCAFNGIFLPPLQGDFGAFSAFYFVMKFLNLTSEKVSQEKVTEMMKKFCAQPWEEIKTSYAGVKEKYLSEYCFSGTYILSLLLQGYHFTADSWEHIHFIGKIQGSDAGWTLGYMLNLTNMIPAEQPLSTPLSHST
modifications: CDS (1)..(1461)
notes: COS-1 CM
With B3, the “CPM Release × 10^3 (raw counts), ATPase activity in concentrated CM” value in data set [3] is recorded as 99.96 CPM × 10^3. In addition, the entries for the “CPM × 10^3 (net counts), ATPase activity in CM” value in data set [4] (10 μL 1x COS-1 supernatant), in data set [4] (20 μL 1x COS-1 supernatant) and in data set [4] (30 μL 1x COS-1 supernatant) were 23.6 CPM × 10^3, 40.2 CPM × 10^3 and 54.4 CPM × 10^3, respectively. Moreover, the “CPM Release × 10^3 (net counts), ATPase activity in CM” value was 24.71 CPM × 10^3 in data set [4] (10 μL unconcentrated COS-1 CM), 43.92 CPM × 10^3 in data set [4] (20 μL unconcentrated COS-1 CM) and 56.93 CPM × 10^3 in data set [4] (30 μL unconcentrated COS-1 CM).

Source of the values: patent US20020002277A1, “Inhibitors of platelet activation and recruitment” (priority 1998, published 2002).
